Measurements reported in US20240209114A1 (JIANGSU HENGRUI PHARMACEUTICALS, published 2024).

What was measured:
[1] = target: Murine MASP2A (S632A) protein (murine, UniProt Q91WP0 16-685); test: SPR (Biacore 8K), antibody captured on anti-human Fc chip, antigen as analyte, 1:1 fit
Experimental: The binding properties of the anti-MASP2 antibodies were determined by the method of Biacore. […] An anti-human Fc IgG capture chip was used to capture the antibodies, then antigens with different concentrations were used as a mobile phase for the determination, and finally curve fitting was performed according to a 1:1 mode to obtain affinity values.

MASP2 in human serum [2] = target: T1, MASP2 in human serum (human, UniProt O00187 16-686); test: cell-based or functional assay
MASP2 in monkey serum = MASP2 in monkey serum (monkey); test: cell-based or functional assay
MASP2 in human serum [3] = target: T1, MASP2 in human serum; test: cell-based or functional assay; remark: listed apart in the source
MASP2 in mouse serum = MASP2 in mouse serum (mouse, UniProt Q91WP0 20-685); test: cell-based or functional assay
Sequence of MASP2 in mouse serum (Q91WP0 20-685 limits assumed): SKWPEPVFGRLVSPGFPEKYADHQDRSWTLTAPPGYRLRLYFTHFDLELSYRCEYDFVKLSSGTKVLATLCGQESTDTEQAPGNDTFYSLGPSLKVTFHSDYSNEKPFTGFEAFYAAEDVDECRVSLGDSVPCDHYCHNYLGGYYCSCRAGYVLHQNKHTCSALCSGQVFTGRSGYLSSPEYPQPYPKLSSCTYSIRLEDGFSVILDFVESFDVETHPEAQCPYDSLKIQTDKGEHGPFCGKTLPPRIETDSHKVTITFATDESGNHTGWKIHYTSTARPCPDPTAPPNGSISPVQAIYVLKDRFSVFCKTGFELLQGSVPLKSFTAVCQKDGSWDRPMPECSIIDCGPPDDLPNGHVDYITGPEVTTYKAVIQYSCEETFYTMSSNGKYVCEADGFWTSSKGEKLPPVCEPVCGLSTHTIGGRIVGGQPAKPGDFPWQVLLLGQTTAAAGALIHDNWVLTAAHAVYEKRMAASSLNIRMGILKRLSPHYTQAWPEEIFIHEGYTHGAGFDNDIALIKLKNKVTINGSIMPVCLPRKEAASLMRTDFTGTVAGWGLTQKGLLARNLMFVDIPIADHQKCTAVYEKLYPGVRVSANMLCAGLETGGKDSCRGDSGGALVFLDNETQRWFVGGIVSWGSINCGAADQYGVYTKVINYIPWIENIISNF

Sequence of Murine MASP2A (S632A) protein (Q91WP0 other isoform, or with tags, fused parts or gaps S632A S632A): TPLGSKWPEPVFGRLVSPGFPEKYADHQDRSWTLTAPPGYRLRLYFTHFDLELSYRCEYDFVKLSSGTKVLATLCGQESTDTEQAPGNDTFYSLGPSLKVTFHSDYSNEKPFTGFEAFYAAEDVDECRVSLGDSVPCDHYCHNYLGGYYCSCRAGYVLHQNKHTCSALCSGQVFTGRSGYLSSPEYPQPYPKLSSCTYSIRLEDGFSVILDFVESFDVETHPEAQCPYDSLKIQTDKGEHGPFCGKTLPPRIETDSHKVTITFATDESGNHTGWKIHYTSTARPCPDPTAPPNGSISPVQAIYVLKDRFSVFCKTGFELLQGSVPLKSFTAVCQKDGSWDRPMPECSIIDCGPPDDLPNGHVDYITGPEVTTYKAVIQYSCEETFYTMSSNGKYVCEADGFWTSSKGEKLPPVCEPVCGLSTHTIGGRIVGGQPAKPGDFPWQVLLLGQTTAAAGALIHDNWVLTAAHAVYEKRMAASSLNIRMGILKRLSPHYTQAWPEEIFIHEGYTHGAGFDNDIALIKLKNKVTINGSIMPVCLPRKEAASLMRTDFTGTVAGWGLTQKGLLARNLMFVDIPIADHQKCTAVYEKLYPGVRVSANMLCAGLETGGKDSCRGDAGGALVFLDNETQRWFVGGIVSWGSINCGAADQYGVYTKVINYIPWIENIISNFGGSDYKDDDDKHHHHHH
T1 sequence (O00187 16-686 limits assumed): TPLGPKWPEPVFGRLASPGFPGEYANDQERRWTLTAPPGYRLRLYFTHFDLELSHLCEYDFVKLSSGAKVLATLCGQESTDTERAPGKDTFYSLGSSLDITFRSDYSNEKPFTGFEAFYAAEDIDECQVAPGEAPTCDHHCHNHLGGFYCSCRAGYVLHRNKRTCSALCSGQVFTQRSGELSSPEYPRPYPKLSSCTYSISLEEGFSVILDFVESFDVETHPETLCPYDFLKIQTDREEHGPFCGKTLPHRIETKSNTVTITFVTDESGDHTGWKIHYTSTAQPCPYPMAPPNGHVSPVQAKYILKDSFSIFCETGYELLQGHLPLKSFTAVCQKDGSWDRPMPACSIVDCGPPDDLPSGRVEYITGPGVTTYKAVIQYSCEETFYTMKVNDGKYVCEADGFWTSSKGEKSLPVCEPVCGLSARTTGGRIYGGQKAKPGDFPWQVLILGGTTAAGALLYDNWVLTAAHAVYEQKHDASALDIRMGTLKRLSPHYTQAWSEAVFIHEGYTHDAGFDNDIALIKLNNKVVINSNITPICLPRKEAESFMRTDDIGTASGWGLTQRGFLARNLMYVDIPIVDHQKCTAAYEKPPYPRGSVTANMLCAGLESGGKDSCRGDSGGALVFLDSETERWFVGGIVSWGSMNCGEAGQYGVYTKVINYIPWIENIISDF

B1: 11165 (antibody, human IgG4 S228P, lambda, V domains shown)
VH: QVQLQESGPGLVKPSETLSLTCTVSGGSISSGEYFWGWIRQPPGKGLEWIGSIYYSGSTYYNPSLKSRVTISVDTSKNQFSLKLSSVTAADTAVYYCARSLKAARRDAFDIWGQGTTVTVSS
VL: QSVLTQPPSVSVSPGQTASITCSGHKLGDKYAYWYQQKPGQSPVLVIYQDTKRPSGIPERFSGFNSGNTATLTISGTQATDEADYYCQTWDSSTGVFGAGTKVTVLG
notes: Fully human antibody from phage display; Full-length human IgG4 (S228P), lambda light chain
Kd [1]: 0.435 nM | koff [1]: 0.00192 s⁻¹ | kon [1]: 4.41e+06 M⁻¹ s⁻¹ | IC50 (µg/mL), inhibition of the lectin pathway in 1% human serum (C4c deposition on mannan) (MASP2 in human serum [2]): 0.499 µg/mL | 90% monkey serum IC50 (µg/mL), inhibition of the lectin pathway (C4c deposition on mannan) (MASP2 in monkey serum): 21.1 µg/mL | 90% human serum IC50 (µg/mL), inhibition of the lectin pathway (C4c deposition on mannan) (MASP2 in human serum [3]): 0.93 µg/mL | 90% mouse serum IC50 (µg/mL), inhibition of the lectin pathway (C4c deposition on mannan) (MASP2 in mouse serum): 4.26 µg/mL
